Key:
[1] = molecular target: T1, human pIgR, full-length, on cells (human, UniProt P01833 19-764); assay: cell-based or functional assay
[2] = molecular target: T2, human pIgR extracellular domain 4-domain 5 (D4-D5) (human, UniProt P01833 350-565); assay: ECL (MSD) heat map, HIS-tagged construct captured via anti-HIS, anti-human-Fc detection
T2 construct: HIS-tagged construct made in HEK293 cells; also called hpIgR domains 4-5
T2 chain: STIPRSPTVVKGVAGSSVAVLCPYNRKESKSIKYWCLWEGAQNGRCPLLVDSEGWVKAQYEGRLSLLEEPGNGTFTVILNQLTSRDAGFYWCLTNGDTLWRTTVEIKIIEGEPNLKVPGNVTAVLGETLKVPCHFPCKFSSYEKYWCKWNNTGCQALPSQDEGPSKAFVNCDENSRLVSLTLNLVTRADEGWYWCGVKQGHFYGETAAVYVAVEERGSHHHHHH

[3] = molecular target: T3, human pIgR extracellular domain 1-domain 2 (D1-D2) (human, UniProt P01833 19-240); assay: BLI, relative to full-length hpIgR ECD
T3 construct: HIS-tagged construct made in HEK293 cells
Procedure: (§1) Bio-layer Interferometry was performed as follows. […] Data were collected with Octet Data Acquisition version 7.1.0.87 (ForteBio) and analyzed using Octet Data Analysis version 7.1 (ForteBio). To measure binding kinetics between VHH-mono-Fc molecules and HIS-tagged pIgR proteins, VHH-mono-Fc was immobilized on amine-reactive generation-2 (ARG2) biosensors according to manufacturer's instructions and increasing concentrations of pIgR proteins were exposed to sensor-immobilized VHH. In some cases, HIS-tagged pIgR proteins were immobilized on anti-HIS biosensors and exposed to increasing concentrations of VHH-mono-Fc molecules. Association and dissociation rates were measured by the shift in wavelength (nm). […] All reactions were performed at 25° C. in PBS.
(§2) (Full-length hpIgR ECD was purchased from R&D Systems.) The five constructs (D1-D2, D1, D1_tCDR1, D1_tCDR2, D1_tCDR3) were expressed and purified from HEK293 cells using immobilized metal ion affinity chromatography. Three hpIgR domain-1 CDR mutants (D1_tCDR1, D1_tCDR2, D1_tCDR3) contain respective teleost fish CDR on a hpIgR domain-1 framework. His-tagged pIgR constructs were immobilized on anti-HIS biosensors and binding of VHH-mono-Fc molecules to pIgR constructs were measured by bio-layer interferometry.

[4] = molecular target: T4, hpIgR domain-1 with teleost fish CDR1 (hD1 tCDR1) (human, UniProt P01833 19-127, limits assumed); assay: BLI, relative to full-length hpIgR ECD
T4 construct: CDR-swapped hpIgR domain-1 mutant, HIS-tagged, made in HEK293 cells; not shown: HIS tag

[5] = molecular target: T5, human pIgR extracellular domain (ECD) (human, UniProt P01833 19-638); assay: BLI, relative to full-length hpIgR ECD
T5 construct: also called hpIgR ECD
Procedure: as §1, §2

[6] = molecular target: T6, human pIgR extracellular domain 1 (D1) (human, UniProt P01833 19-127); assay: BLI, relative to full-length hpIgR ECD
T6 construct: HIS-tagged construct made in HEK293 cells; also called hpIgR domain-1
Procedure: as §1, §2

[7] = molecular target: T7, hpIgR domain-1 with teleost fish CDR3 (hD1 tCDR3) (human, UniProt P01833 19-127, limits assumed); assay: BLI, relative to full-length hpIgR ECD
T7 construct: CDR-swapped hpIgR domain-1 mutant, HIS-tagged, made in HEK293 cells; not shown: HIS tag

[8] = molecular target: T5, human pIgR extracellular domain (ECD); assay: ECL (MSD), anti-VHH detection against anti-Fc detection
Procedure: (§3) To check whether VHH recognizes a buried epitope on pIgR, EC₅₀ values were measured for VHH-mono-Fc molecules binding to hpIgR-ECD protein by electrochemiluminescence using two different detection antibodies, an anti-Fc antibody and an anti-VHH antibody. pIgR ECD (10 μg/ml in PBS) was coated on high-bind MSD plates for 2 hours at RT with 1000 rpm, incubated with blocking buffer for 1 hour at RT, incubated with VHH-mono-Fc molecules (increasing concentrations in PBS) for 2 hours at RT with 1000 rpm, washed 3× with PBT, incubated with ruthenylated secondary antibody (2 μg/ml in PBS) for 1 hour at RT with 1000 rpm, washed 3× with PBT and read plates in 40 ul reading buffer using the MSD imager. EC50 was calculated by fitting log VHH concentration versus log ECLU in Prism (Graphpad). The increase in EC₅₀ (>50-fold) due to anti-VHH detection was used as a measure to determine whether VHH recognized buried epitope on pIgR.

[9] = molecular target: T1, human pIgR, full-length, on cells; assay: flow cytometry on MDCK-hpIgR cells
Procedure: Flow Cytometry was performed as follows. To test whether VHH-mono-Fc molecules recognize cell-surface hpIgR, Madin-Darby canine kidney (MDCK) cells engineered to express full-length hpIgR were used. Cells were cultured in Dulbecco's modified Eagle's medium containing 10% fetal calf serum at 37° C. with 5% CO₂. Cells were split into equal fractions (≈70,000 cells) and incubated with increasing concentrations of VHH-mono-Fc molecules for 30 min at 4 C. […] Cells were washed twice with cold staining buffer, resuspended in running buffer and analyzed with an iQue Screener (IntelliCyt Corporation). Binding was assessed by RL1 (A647) Geomeans from the live cell population and EC50 was calculated by fitting log VHH concentration versus MFI in Prism (Graphpad).

[10] = molecular target: T5, human pIgR extracellular domain (ECD); assay: BLI; summary table, repeats Table 1; summary Table 4
[11] = molecular target: T6, human pIgR extracellular domain 1 (D1); assay: ECL (MSD); headed 'Anti-Fc' on the sheet, but its ECD values are the anti-VHH values of Table 2, so anti-VHH detection
[12] = molecular target: T5, human pIgR extracellular domain (ECD); assay: BLI, screen of the VHH clones generated from mpIgR antigen
[13] = molecular target: T8, mouse pIgR extracellular domain (ECD) (mouse, UniProt O70570 19-645); assay: as above
T8 construct: The entry ends with a HHHHHH tag; also called mpIgR; mpIgR ectodomain
T8 sequence: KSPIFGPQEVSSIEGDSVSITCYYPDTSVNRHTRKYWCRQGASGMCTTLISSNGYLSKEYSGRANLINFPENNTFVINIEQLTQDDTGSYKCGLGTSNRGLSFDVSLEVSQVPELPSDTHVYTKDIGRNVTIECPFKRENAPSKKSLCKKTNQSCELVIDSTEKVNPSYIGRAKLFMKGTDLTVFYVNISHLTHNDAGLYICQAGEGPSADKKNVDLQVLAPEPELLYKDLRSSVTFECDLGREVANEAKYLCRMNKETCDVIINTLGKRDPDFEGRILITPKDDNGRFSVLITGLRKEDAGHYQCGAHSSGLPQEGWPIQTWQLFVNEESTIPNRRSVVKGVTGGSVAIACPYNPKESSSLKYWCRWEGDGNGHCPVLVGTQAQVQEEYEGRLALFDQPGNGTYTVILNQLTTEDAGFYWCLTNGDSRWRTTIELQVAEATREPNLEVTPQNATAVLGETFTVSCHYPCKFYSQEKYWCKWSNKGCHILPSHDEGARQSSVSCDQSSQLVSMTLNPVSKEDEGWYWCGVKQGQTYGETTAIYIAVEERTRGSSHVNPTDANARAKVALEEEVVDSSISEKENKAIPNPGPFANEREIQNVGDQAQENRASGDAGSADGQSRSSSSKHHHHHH

[14] = molecular target: T5, human pIgR extracellular domain (ECD); assay: BLI, HIS-tagged pIgR construct on anti-HIS biosensors
Procedure: as §1, §2

[15] = molecular target: T5, human pIgR extracellular domain (ECD); assay: ECL (MSD), hpIgR-ECD coated, anti-VHH detection
Procedure: as §3

[16] = molecular target: T5, human pIgR extracellular domain (ECD); assay: BLI; summary table, repeats Table 1
[17] = molecular target: T5, human pIgR extracellular domain (ECD); assay: BLI, HIS-tagged pIgR construct on anti-HIS biosensors; HIS-tagged hpIgR_ECD on anti-HIS biosensors, Table 3
Procedure: as §1, §2

[18] = molecular target: T8, mouse pIgR extracellular domain (ECD); assay: BLI, screen of the VHH clones generated from hpIgR antigen

T1 sequence (P01833 19-764): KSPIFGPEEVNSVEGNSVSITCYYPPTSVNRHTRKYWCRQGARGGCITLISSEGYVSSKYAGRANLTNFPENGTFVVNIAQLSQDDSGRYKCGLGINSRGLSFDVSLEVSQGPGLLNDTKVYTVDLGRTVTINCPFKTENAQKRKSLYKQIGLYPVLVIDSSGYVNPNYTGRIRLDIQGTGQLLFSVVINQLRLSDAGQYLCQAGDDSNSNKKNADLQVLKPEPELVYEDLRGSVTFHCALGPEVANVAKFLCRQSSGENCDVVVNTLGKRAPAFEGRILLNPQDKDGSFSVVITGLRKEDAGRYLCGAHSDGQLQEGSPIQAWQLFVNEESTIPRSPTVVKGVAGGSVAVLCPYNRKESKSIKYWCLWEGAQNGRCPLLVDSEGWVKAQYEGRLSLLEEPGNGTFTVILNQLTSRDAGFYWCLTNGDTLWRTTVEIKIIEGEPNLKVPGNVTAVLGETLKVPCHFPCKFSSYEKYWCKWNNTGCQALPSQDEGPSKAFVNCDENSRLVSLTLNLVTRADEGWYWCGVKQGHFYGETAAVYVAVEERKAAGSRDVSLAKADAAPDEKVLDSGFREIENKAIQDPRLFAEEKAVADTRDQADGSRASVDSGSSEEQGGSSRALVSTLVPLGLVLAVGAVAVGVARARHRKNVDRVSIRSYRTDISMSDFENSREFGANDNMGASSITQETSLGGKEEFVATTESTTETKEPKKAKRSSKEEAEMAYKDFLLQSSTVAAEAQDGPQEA
T5 sequence (P01833 other isoform, or with tags, fused parts or gaps): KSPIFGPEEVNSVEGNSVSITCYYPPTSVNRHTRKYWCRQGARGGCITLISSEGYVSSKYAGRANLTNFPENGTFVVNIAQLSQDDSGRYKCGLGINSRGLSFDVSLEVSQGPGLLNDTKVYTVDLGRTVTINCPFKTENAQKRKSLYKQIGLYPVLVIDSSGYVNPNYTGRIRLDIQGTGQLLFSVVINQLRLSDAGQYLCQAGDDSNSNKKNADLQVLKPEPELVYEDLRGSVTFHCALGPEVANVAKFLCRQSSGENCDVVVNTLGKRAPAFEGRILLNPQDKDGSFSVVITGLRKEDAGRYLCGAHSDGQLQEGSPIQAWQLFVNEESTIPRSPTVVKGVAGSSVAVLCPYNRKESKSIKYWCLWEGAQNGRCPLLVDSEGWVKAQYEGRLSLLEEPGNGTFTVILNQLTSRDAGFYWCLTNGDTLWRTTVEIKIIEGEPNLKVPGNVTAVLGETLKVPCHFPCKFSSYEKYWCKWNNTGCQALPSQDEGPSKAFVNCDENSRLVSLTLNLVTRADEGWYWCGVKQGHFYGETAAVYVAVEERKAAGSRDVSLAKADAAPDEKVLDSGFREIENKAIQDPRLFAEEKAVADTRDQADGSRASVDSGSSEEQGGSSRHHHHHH
T6 sequence (P01833 other isoform, or with tags, fused parts or gaps limits assumed): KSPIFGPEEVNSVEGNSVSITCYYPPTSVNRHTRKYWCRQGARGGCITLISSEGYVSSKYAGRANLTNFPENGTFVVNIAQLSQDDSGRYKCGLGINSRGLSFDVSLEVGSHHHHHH
T3 sequence (P01833 other isoform, or with tags, fused parts or gaps limits assumed): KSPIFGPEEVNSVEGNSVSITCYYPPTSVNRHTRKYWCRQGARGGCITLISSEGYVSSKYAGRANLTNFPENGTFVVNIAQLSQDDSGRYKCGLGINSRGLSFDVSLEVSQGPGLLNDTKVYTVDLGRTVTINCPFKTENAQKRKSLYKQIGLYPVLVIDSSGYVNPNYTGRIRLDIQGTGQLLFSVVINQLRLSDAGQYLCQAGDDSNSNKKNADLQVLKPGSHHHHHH
T4 sequence (P01833 other isoform, or with tags, fused parts or gaps limits assumed): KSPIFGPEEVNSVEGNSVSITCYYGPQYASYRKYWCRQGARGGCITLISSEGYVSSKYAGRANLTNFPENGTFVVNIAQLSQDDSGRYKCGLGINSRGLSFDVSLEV
T7 sequence (P01833 other isoform, or with tags, fused parts or gaps limits assumed): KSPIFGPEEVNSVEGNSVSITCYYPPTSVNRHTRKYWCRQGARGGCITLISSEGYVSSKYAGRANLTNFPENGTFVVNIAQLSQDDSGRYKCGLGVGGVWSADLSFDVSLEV

B1: VHH2-linker-mono-Fc protein (Fc fusion)
chain: EVQVVESGGGLVQAGGSLKLACAAPGLTFSSYRMGWFRQAPGQEREFVAAIDWNGRGTYYRYYADSVKGRSTISRDNAKNTVYLQMNSLKPEDTAVYYCAATTVLTDPRVLNEYATWGQGTQVTVSSEPKTPKPQPQPQLQPQPNPTTESKSPKSPAPELLGGPSVFLFPPKPKDTLMISRTPEVTCVVVDVSHEDPEVKFNWYVDGVEVHNAKTKPREEQYNSTYRVVSVLTVLHQDWLNGKEYKCKVSNKALPAPIEKTISKAKGQPREPQVYTKPPSREEMTKNQVSLSCLVKGFYPSDIAVEWESNGQPENNYKTTVPVLDSDGSFRLASYLTVDKSRWQQGNVFSCSVMHEALHNHYTQKSLSLSPGK
notes: also called VHH2-mono-Fc; mpIgR_338
increase in their apical concentration relative to control VHH (MDCK-hpIgR monolayers) [1]: > 10 fold
binding result [2]: no binding (tested: 100 ug/ml (single concentration))
Fold change in KD [3]: 1 fold
Fold change in KD [4]: 1 fold
Fold change in KD [5]: 1 fold
Fold change in KD [6]: 0.7 fold
Fold change in KD [7]: 0.7 fold
Fold change in EC50 [8]: 1 fold
EC50 [9]: 6.3 nM
Kd [10]: 21 nM
EC50 [11]: 8.1 nM
Kd [12]: 22 nM
Kd [13]: 1 nM
Kd [14]: 22 nM
EC50 [15]: 4 nM

B2: VHH3-linker-mono-Fc protein (Fc fusion)
chain: QLQLVESGGGLVQPGGSLRLSCAASGSIFSINVMGWYRQAPGKQRELVARINGGGITHYAESVKGRFTISRDNAKNTVYLQMNSLKPEDTAAYYCKADVFGSSGYVETYWGQGTQVTVSSEPKTPKPQPQPQLQPQPNPTTESKSPKSPAPELLGGPSVFLFPPKPKDTLMISRTPEVTCVVVDVSHEDPEVKFNWYVDGVEVHNAKTKPREEQYNSTYRVVSVLTVLHQDWLNGKEYKCKVSNKALPAPIEKTISKAKGQPREPQVYTKPPSREEMTKNQVSLSCLVKGFYPSDIAVEWESNGQPENNYKTTVPVLDSDGSFRLASYLTVDKSRWQQGNVFSCSVMHEALHNHYTQKSLSLSPGK
notes: made in CHO cells; also called VHH3-mono-Fc; hpIgR_021
Fold change in KD [3]: 1.3 fold
Fold change in KD [4]: 7.7 fold
Fold change in KD [5]: 1 fold
Fold change in KD [6]: 0.8 fold
Fold change in KD [7]: 0.8 fold
Fold change in EC50 [8]: 54 fold
EC50 [9]: 6.4 nM
Kd [16]: 5 nM
Kd [17]: 10 nM
EC50 [11]: 17.6 nM
Kd [18]: 40 nM
EC50 [15]: 28.6 nM

— patent publication US20220324970A1 (Janssen / Centocor, published 2022)
